From PMC4609182 (The EMBO Journal, 2015)

Tests used:
Details in all cases: both partners purified
[1] = target: Phosphorylated ubiquitin (phospho-Ser65 ubiquitin) (UniProt P0CG48 1-76, phosphoserine at 65); experiment: ITC; Parkin constructs titrated with pUb; 20°C; 50 mM Tris–HCl pH 7.4, 150 mM NaCl, 1 mM TCEP; stoichiometry determined experimentally
[2] = target: T1, UbcH7 (E2 ubiquitin-conjugating enzyme) (UniProt P68036 1-154); experiment: ITC; Parkin constructs titrated with UbcH7; 20°C; 50 mM Tris–HCl pH 7.4, 150 mM NaCl, 1 mM TCEP; stoichiometry fixed to 1:1
T1 sequence (P68036 whole entry): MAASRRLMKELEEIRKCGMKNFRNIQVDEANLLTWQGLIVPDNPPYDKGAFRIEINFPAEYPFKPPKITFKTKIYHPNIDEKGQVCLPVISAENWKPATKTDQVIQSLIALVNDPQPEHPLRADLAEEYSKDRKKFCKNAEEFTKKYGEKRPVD

[3] = target: His-tagged phosphorylated ubiquitin (UniProt P0CG48 1-76, phosphoserine at 65); experiment: pull-down; 1 nmol His-tagged pUb on Ni-NTA resin, 15 min with 1 nmol R0RBR variant; TBS, 2 mM BME, 0.02% Igepal 630; SDS–PAGE, Coomassie
[4] = target: T1, UbcH7 (E2 ubiquitin-conjugating enzyme); experiment: NMR titration; 15N-UbcH7 with unlabeled Parkin constructs with or without pUb; 1H-15N correlation spectra, 293 K; 20 mM Tris–HCl, 120 mM NaCl, 2 mM DTT, pH 7.4; binding read as loss of signals

| Binder | Kd [1] | binding result [3] | other results |
| --- | --- | --- | --- |
| H302A Parkin R0RBR (domain or fragment, rat) PTYHSFFVYCKGPCHKVQPGKLRVQCGTCRQATLTLAQGPSCWDDVLIPNRMSGECQSPDCPGTRAEFFFKCGAHPTSDKDTSVALNLITNNSRSIPCIACTDVRNPVLVFQCNHRHVICLDCFHLYCVTRLNDRQFVHDAQLGYSLPCVAGCPNSLIKELAHFRILGEEQYNRYQQYGAEECVLQMGGVLCPRPGCGAGLLPEQGQKKVTCEGGNGLGCGFVFCRDCKEAYHEGECDSMFEASGATSQAYRVDQRAAEQARWEEASKETIKKTTKPCPRCNVPIEKNGGCMHMKCPQPQCKLEWCWNCGCEWNRACMGDHWFDV | 1330 nM | – | – |
| W403A Parkin R0RBR (domain or fragment, rat) PTYHSFFVYCKGPCHKVQPGKLRVQCGTCRQATLTLAQGPSCWDDVLIPNRMSGECQSPDCPGTRAEFFFKCGAHPTSDKDTSVALNLITNNSRSIPCIACTDVRNPVLVFQCNHRHVICLDCFHLYCVTRLNDRQFVHDAQLGYSLPCVAGCPNSLIKELHHFRILGEEQYNRYQQYGAEECVLQMGGVLCPRPGCGAGLLPEQGQKKVTCEGGNGLGCGFVFCRDCKEAYHEGECDSMFEASGATSQAYRVDQRAAEQARAEEASKETIKKTTKPCPRCNVPIEKNGGCMHMKCPQPQCKLEWCWNCGCEWNRACMGDHWFDV | – | – | Kd [2]: 119000 nM |
| Parkin R0RBR module (RING0, RING1, IBR, RING2), wild type (domain or fragment, rat) PTYHSFFVYCKGPCHKVQPGKLRVQCGTCRQATLTLAQGPSCWDDVLIPNRMSGECQSPDCPGTRAEFFFKCGAHPTSDKDTSVALNLITNNSRSIPCIACTDVRNPVLVFQCNHRHVICLDCFHLYCVTRLNDRQFVHDAQLGYSLPCVAGCPNSLIKELHHFRILGEEQYNRYQQYGAEECVLQMGGVLCPRPGCGAGLLPEQGQKKVTCEGGNGLGCGFVFCRDCKEAYHEGECDSMFEASGATSQAYRVDQRAAEQARWEEASKETIKKTTKPCPRCNVPIEKNGGCMHMKCPQPQCKLEWCWNCGCEWNRACMGDHWFDV | 22 nM | – | Kd [2]: > 700000 nM |
| R334A Parkin R0RBR (domain or fragment, rat) PTYHSFFVYCKGPCHKVQPGKLRVQCGTCRQATLTLAQGPSCWDDVLIPNRMSGECQSPDCPGTRAEFFFKCGAHPTSDKDTSVALNLITNNSRSIPCIACTDVRNPVLVFQCNHRHVICLDCFHLYCVTRLNDRQFVHDAQLGYSLPCVAGCPNSLIKELHHFRILGEEQYNRYQQYGAEECVLQMGGVLCPAPGCGAGLLPEQGQKKVTCEGGNGLGCGFVFCRDCKEAYHEGECDSMFEASGATSQAYRVDQRAAEQARWEEASKETIKKTTKPCPRCNVPIEKNGGCMHMKCPQPQCKLEWCWNCGCEWNRACMGDHWFDV | – | binds | – |
| R271A Parkin R0RBR (domain or fragment, rat) PTYHSFFVYCKGPCHKVQPGKLRVQCGTCRQATLTLAQGPSCWDDVLIPNRMSGECQSPDCPGTRAEFFFKCGAHPTSDKDTSVALNLITNNSRSIPCIACTDVRNPVLVFQCNHRHVICLDCFHLYCVTALNDRQFVHDAQLGYSLPCVAGCPNSLIKELHHFRILGEEQYNRYQQYGAEECVLQMGGVLCPRPGCGAGLLPEQGQKKVTCEGGNGLGCGFVFCRDCKEAYHEGECDSMFEASGATSQAYRVDQRAAEQARWEEASKETIKKTTKPCPRCNVPIEKNGGCMHMKCPQPQCKLEWCWNCGCEWNRACMGDHWFDV | – | binds | – |
| K369A Parkin R0RBR (domain or fragment, rat) PTYHSFFVYCKGPCHKVQPGKLRVQCGTCRQATLTLAQGPSCWDDVLIPNRMSGECQSPDCPGTRAEFFFKCGAHPTSDKDTSVALNLITNNSRSIPCIACTDVRNPVLVFQCNHRHVICLDCFHLYCVTRLNDRQFVHDAQLGYSLPCVAGCPNSLIKELHHFRILGEEQYNRYQQYGAEECVLQMGGVLCPRPGCGAGLLPEQGQKKVTCEGGNGLGCGFVFCRDCAEAYHEGECDSMFEASGATSQAYRVDQRAAEQARWEEASKETIKKTTKPCPRCNVPIEKNGGCMHMKCPQPQCKLEWCWNCGCEWNRACMGDHWFDV | – | binds | – |
| R275A Parkin R0RBR (domain or fragment, rat) PTYHSFFVYCKGPCHKVQPGKLRVQCGTCRQATLTLAQGPSCWDDVLIPNRMSGECQSPDCPGTRAEFFFKCGAHPTSDKDTSVALNLITNNSRSIPCIACTDVRNPVLVFQCNHRHVICLDCFHLYCVTRLNDAQFVHDAQLGYSLPCVAGCPNSLIKELHHFRILGEEQYNRYQQYGAEECVLQMGGVLCPRPGCGAGLLPEQGQKKVTCEGGNGLGCGFVFCRDCKEAYHEGECDSMFEASGATSQAYRVDQRAAEQARWEEASKETIKKTTKPCPRCNVPIEKNGGCMHMKCPQPQCKLEWCWNCGCEWNRACMGDHWFDV | – | binds | – |
| R314A Parkin R0RBR (domain or fragment, rat) PTYHSFFVYCKGPCHKVQPGKLRVQCGTCRQATLTLAQGPSCWDDVLIPNRMSGECQSPDCPGTRAEFFFKCGAHPTSDKDTSVALNLITNNSRSIPCIACTDVRNPVLVFQCNHRHVICLDCFHLYCVTRLNDRQFVHDAQLGYSLPCVAGCPNSLIKELHHFRILGEEQYNAYQQYGAEECVLQMGGVLCPRPGCGAGLLPEQGQKKVTCEGGNGLGCGFVFCRDCKEAYHEGECDSMFEASGATSQAYRVDQRAAEQARWEEASKETIKKTTKPCPRCNVPIEKNGGCMHMKCPQPQCKLEWCWNCGCEWNRACMGDHWFDV | – | binds | – |
| K161N Parkin R0RBR (domain or fragment, rat) PTYHSFFVYCKGPCHKVQPGNLRVQCGTCRQATLTLAQGPSCWDDVLIPNRMSGECQSPDCPGTRAEFFFKCGAHPTSDKDTSVALNLITNNSRSIPCIACTDVRNPVLVFQCNHRHVICLDCFHLYCVTRLNDRQFVHDAQLGYSLPCVAGCPNSLIKELHHFRILGEEQYNRYQQYGAEECVLQMGGVLCPRPGCGAGLLPEQGQKKVTCEGGNGLGCGFVFCRDCKEAYHEGECDSMFEASGATSQAYRVDQRAAEQARWEEASKETIKKTTKPCPRCNVPIEKNGGCMHMKCPQPQCKLEWCWNCGCEWNRACMGDHWFDV | – | binds | – |
| Phosphorylated Parkin (phospho-Ser65 in the Ubl domain) (enzyme, rat, UniProt Q9JK66 1-465, looked up, phosphoserine at 65) MIVFVRFNSSYGFPVEVDSDTSIFQLKEVVAKRQGVPADQLRVIFAGKELQNHLTVQNCDLEQQSIVHIVQRPQRKSHETNASGGDKPQSTPEGSIWEPRSLTRVDLSSHILPADSVGLAVILDTDSKSDSEAARGPEAKPTYHSFFVYCKGPCHKVQPGKLRVQCGTCRQATLTLAQGPSCWDDVLIPNRMSGECQSPDCPGTRAEFFFKCGAHPTSDKDTSVALNLITNNSRSIPCIACTDVRNPVLVFQCNHRHVICLDCFHLYCVTRLNDRQFVHDAQLGYSLPCVAGCPNSLIKELHHFRILGEEQYNRYQQYGAEECVLQMGGVLCPRPGCGAGLLPEQGQKKVTCEGGNGLGCGFVFCRDCKEAYHEGECDSMFEASGATSQAYRVDQRAAEQARWEEASKETIKKTTKPCPRCNVPIEKNGGCMHMKCPQPQCKLEWCWNCGCEWNRACMGDHWFDV | 17 nM | – | – |
| Full-length Parkin, unmodified (enzyme, rat, UniProt Q9JK66 1-465, looked up) MIVFVRFNSSYGFPVEVDSDTSIFQLKEVVAKRQGVPADQLRVIFAGKELQNHLTVQNCDLEQQSIVHIVQRPQRKSHETNASGGDKPQSTPEGSIWEPRSLTRVDLSSHILPADSVGLAVILDTDSKSDSEAARGPEAKPTYHSFFVYCKGPCHKVQPGKLRVQCGTCRQATLTLAQGPSCWDDVLIPNRMSGECQSPDCPGTRAEFFFKCGAHPTSDKDTSVALNLITNNSRSIPCIACTDVRNPVLVFQCNHRHVICLDCFHLYCVTRLNDRQFVHDAQLGYSLPCVAGCPNSLIKELHHFRILGEEQYNRYQQYGAEECVLQMGGVLCPRPGCGAGLLPEQGQKKVTCEGGNGLGCGFVFCRDCKEAYHEGECDSMFEASGATSQAYRVDQRAAEQARWEEASKETIKKTTKPCPRCNVPIEKNGGCMHMKCPQPQCKLEWCWNCGCEWNRACMGDHWFDV | 431 nM | – | – |
| W403A Parkin (enzyme, rat, UniProt Q9JK66 1-465, looked up) MIVFVRFNSSYGFPVEVDSDTSIFQLKEVVAKRQGVPADQLRVIFAGKELQNHLTVQNCDLEQQSIVHIVQRPQRKSHETNASGGDKPQSTPEGSIWEPRSLTRVDLSSHILPADSVGLAVILDTDSKSDSEAARGPEAKPTYHSFFVYCKGPCHKVQPGKLRVQCGTCRQATLTLAQGPSCWDDVLIPNRMSGECQSPDCPGTRAEFFFKCGAHPTSDKDTSVALNLITNNSRSIPCIACTDVRNPVLVFQCNHRHVICLDCFHLYCVTRLNDRQFVHDAQLGYSLPCVAGCPNSLIKELHHFRILGEEQYNRYQQYGAEECVLQMGGVLCPRPGCGAGLLPEQGQKKVTCEGGNGLGCGFVFCRDCKEAYHEGECDSMFEASGATSQAYRVDQRAAEQARAEEASKETIKKTTKPCPRCNVPIEKNGGCMHMKCPQPQCKLEWCWNCGCEWNRACMGDHWFDV | – | – | binding result [4]: binds |
| Full-length L266K Parkin (enzyme, rat, UniProt Q9JK66 1-465, looked up) MIVFVRFNSSYGFPVEVDSDTSIFQLKEVVAKRQGVPADQLRVIFAGKELQNHLTVQNCDLEQQSIVHIVQRPQRKSHETNASGGDKPQSTPEGSIWEPRSLTRVDLSSHILPADSVGLAVILDTDSKSDSEAARGPEAKPTYHSFFVYCKGPCHKVQPGKLRVQCGTCRQATLTLAQGPSCWDDVLIPNRMSGECQSPDCPGTRAEFFFKCGAHPTSDKDTSVALNLITNNSRSIPCIACTDVRNPVLVFQCNHRHVICLDCFHKYCVTRLNDRQFVHDAQLGYSLPCVAGCPNSLIKELHHFRILGEEQYNRYQQYGAEECVLQMGGVLCPRPGCGAGLLPEQGQKKVTCEGGNGLGCGFVFCRDCKEAYHEGECDSMFEASGATSQAYRVDQRAAEQARWEEASKETIKKTTKPCPRCNVPIEKNGGCMHMKCPQPQCKLEWCWNCGCEWNRACMGDHWFDV | 37 nM | – | – |
